The assay deals with T1, GluA1 (mouse (hippocampus of DIR-KI mice), UniProt P23818 19-907, limits assumed).
T1 construct: Endogenous protein in tissue sections (PLA assay)
The assay can be described thus: PLA assay in hippocampus (FIG. 20E).

T1 sequence (P23818 19-907 limits assumed): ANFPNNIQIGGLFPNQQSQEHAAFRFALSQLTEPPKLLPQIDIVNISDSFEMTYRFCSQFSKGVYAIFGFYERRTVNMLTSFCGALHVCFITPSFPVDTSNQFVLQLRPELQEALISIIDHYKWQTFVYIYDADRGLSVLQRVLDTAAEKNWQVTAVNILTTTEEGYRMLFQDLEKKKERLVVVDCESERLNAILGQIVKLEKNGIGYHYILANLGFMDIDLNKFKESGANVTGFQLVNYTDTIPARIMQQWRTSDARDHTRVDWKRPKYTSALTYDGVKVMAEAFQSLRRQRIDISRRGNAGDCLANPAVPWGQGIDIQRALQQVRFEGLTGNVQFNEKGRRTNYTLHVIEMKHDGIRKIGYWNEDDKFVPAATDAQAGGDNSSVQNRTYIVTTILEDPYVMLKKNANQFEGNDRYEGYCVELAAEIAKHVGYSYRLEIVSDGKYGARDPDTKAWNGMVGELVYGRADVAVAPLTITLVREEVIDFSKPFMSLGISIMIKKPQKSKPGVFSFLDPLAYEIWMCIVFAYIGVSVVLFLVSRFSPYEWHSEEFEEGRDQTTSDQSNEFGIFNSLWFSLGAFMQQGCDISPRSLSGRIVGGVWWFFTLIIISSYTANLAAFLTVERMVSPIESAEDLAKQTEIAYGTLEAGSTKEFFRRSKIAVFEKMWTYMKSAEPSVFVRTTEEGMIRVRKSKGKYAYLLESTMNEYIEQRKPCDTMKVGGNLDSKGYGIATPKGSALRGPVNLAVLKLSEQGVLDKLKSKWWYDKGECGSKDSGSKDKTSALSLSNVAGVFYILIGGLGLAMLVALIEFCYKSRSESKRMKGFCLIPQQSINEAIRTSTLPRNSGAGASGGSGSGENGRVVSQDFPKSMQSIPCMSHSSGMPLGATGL

B1: DNA damage-inducible transcript 4-like (DDIT4L) intron retention spliced product (DIR) protein (other)
chain: MVATGSLSSKNPASISELLDCGYHPESLLSGECPRCPPFSPPKVGASGSIGWAGFRLPPLPLCRRCHKIHLRRLLSKFSNIFSP
notes: 84 aa spliced product peptide; also called QDLIR; human DIR
For the molecule B1, the binding result was “binds”.

(Values after patent US20250060376A1 (PLASMARKER BIOTECHNOLOGY, published 2025).)
